For one assay, the system named is Cynomolgus monkey EGFR. Kind of assay: ELISA species cross reactivity. Format: binding. The method, then: (§1) Specificity for EGFR and cMET species paralogs and closely related family members was determined by ELISA. Briefly, antigen solutions were prepared in PBS at 1 μg/mL and 50 microliters was coated onto half area ELISA assay plates. Plates were washed and blocked with 1% BSA in PBS containing 0.005% Tween-20 (PBS-T) for one hour at room temperature. The wells were washed 4 times in PBS-T. As set out in FIG. 3, the primary antibodies used where: R374 (a non-binding IgG1 isotype control antibody), B09 (anti-cMET antibody), QD6 (anti-EGFR antibody), RAA22 (anti-EGFR antibody), QD6/B09 (bispecific EGFR/c-MET DuetMAb), RAA22/B09 (bispecific EGFR/c-MET DuetMAb), PaniX (anti-EGFR antibody), MetMab (anti-cMET antibody) and Mab11311 (anti-HER4 antibody). Wells were incubated with 50 microliters of the indicated primary antibodies diluted in PBS-T in a 1:3 dilution series, starting at 10 μg/mL and ending at 0.002 μg/mL, except for the HER4 binding mAb control, MAB1131, for which the series started at 1 μg/mL. The wells were washed 4 times in PBS-T, then 50 μl of goat anti-human Fab HRP-labeled secondary antibody, diluted 1:5000 in PBS-T, was added to each well and incubated for one hour at room temperature. […] 50 microliters of TMB stop solution was added to all wells and the absorbance was read at 450 nm on a SpectraMax M5 microplate reader. Data were analyzed in the SoftMax Pro 5 software and plotted using GraphPad Prism 7 graphing software.
(§2) To determine the species cross reactivity, ELISA assays were carried out as described above. […] There was no detectable binding of any of the antibodies to mouse cMET.

In the next assay the target is Human EGFR (Homo sapiens, UniProt P00533). Kind of assay: ELISA species cross reactivity. It counts as binding. Conditions: antibody 10 to 0.002 μg/mL. The method, then: as §1, §2
On the technique in general: ELISA stands for enzyme-linked immunosorbent assay.

The target in the next assay is T1, Mouse EGFR (Mus musculus, UniProt Q01279).
T1 construct: purchased SinoBiological 51091-M08H
Kind of assay: ELISA species cross reactivity. It counts as binding. The method, then:
as §1, §2

The subject of the next assay is H1975 cells. Put plainly: Internalization of AF647-labeled antibodies, live cell confocal fluorescence microscopy. It counts as cell-based. Conditions: for internalization half-times: images every 5 min. On the procedure: Internalization kinetics of AlexaFluor647 (AF647) primary-labeled DuetMabs: RAA22/B09 and QD6/B09 antibodies was assessed in vitro using the EGFR and c-MET expressing cell line, H1975. Each antibody was pre-bound to cells and antibody translocation from cell surface to cytoplasm was then monitored using live cell confocal fluorescence microscopy. Both antibodies localized primarily on the cell surface before (T=0) subjecting to internalization conditions and were translocated to the cytoplasm area after 1 hour (data not shown). Kinetic images were taken every 5 min over the time course of internalization and were processed using a quantitative algorithm to determine internalization kinetic constants and half-times.
To evaluate the mode of antibody internalization and to investigate contribution of each arm to overall internalization of the DuetMabs, we evaluated internalization of single-arm specific control antibody molecules, QD6/IgG and B09/IgG, against duet QD6/B09, and RAA22/IgG and B09/IgG against duet RAA22/B09 in H1975 cells, which express both EGFR and c-MET. Since only one arm is specific for the target receptor, the control antibody can only internalize via one receptor eliminating dual receptor targeting and cross-linking as mode of internalization.

The target of assay [1] is T2, Cynomolgus monkey cMET (recombinant, soluble monomeric) (cynomolgus monkey, UniProt A0M8R7 25-932 (Papio anubis entry)).
T2 construct: also called cyno cMET
Kind of assay: SPR, Biacore T200, antibody captured on anti-human IgG, soluble monomeric antigen as analyte, 25 C.

The target of assay [2] is T3, Cynomolgus monkey EGFR (recombinant, soluble monomeric) (cynomolgus monkey, UniProt P55245 25-645 (rhesus entry)).
T3 construct: also called cyno EGFR
Described as above.

The target of assay [3] is T4, Mouse EGFR (recombinant, soluble monomeric) (mouse, UniProt Q01279 25-647).
T4 construct: also called murine EGFR
Described as above.

A further assay addresses Mouse cMET (recombinant) (mouse, UniProt P16056 25-929, limits assumed). Put plainly: ELISA: antigen coated at 1 ug/mL, antibody dilution series, goat anti-human Fab-HRP, A450; panel Mouse cMET.
In another assay the target is T5, HER3 (UniProt P21860 20-643, limits assumed).
T5 construct: also called EGFR HER family protein HER3
Kind of assay: ELISA: antigen coated at 1 ug/mL, antibody dilution series, goat anti-human Fab-HRP, A450; panel Human HER3.

A further assay concerns the target T6, HER4 (UniProt Q15303 26-649, limits assumed).
T6 construct: also called EGFR HER family protein HER4
T6 sequence (looked up): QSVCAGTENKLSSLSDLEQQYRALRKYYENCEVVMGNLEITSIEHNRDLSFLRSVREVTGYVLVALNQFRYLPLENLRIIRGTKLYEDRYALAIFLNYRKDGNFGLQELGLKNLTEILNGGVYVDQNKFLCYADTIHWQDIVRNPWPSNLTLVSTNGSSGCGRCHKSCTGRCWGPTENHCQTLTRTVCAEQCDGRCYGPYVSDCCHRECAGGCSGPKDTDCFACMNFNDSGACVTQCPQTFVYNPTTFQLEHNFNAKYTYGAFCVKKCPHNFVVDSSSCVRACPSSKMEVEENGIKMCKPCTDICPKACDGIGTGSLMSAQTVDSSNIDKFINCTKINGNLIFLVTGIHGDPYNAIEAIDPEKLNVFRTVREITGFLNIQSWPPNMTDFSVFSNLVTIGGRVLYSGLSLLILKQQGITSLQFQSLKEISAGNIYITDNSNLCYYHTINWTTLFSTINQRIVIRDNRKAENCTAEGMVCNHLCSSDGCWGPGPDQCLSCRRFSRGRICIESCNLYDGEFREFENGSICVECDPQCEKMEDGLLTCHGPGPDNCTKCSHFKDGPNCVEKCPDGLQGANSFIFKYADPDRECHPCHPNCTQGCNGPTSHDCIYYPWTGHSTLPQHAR
Kind of assay: ELISA: antigen coated at 1 ug/mL, antibody dilution series, goat anti-human Fab-HRP, A450; panel Human HER4.

For orientation: Kd means the equilibrium constant for the complex coming apart. By koff is commonly meant the first-order rate constant of dissociation. By kon is commonly meant the rate constant with which the complex forms.

T2 sequence (A0M8R7 25-932 S170N/I621T): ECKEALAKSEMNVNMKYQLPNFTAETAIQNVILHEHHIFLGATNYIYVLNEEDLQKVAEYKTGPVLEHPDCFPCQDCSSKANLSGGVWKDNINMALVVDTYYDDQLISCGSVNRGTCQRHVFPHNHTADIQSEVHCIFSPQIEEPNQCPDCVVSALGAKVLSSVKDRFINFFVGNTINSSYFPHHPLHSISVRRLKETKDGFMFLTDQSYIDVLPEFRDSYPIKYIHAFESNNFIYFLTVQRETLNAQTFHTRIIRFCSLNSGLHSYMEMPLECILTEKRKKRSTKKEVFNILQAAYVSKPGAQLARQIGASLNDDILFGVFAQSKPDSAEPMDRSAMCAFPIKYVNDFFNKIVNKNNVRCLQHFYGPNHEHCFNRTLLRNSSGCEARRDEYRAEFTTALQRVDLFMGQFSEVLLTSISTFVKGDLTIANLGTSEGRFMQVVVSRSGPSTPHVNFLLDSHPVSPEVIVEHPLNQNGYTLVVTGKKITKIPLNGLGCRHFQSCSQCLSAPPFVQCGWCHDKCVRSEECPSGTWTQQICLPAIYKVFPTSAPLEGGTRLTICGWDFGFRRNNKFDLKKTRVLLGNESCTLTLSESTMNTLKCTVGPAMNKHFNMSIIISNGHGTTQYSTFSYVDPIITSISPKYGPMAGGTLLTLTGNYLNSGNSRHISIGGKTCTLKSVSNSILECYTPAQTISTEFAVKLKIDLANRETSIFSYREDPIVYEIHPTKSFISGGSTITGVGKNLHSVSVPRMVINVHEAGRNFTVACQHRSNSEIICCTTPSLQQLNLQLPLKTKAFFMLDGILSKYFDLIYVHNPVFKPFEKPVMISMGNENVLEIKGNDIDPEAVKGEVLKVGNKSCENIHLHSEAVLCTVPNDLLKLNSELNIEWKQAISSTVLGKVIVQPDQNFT
Chain of Mouse cMET (recombinant) (P16056 25-929 limits assumed): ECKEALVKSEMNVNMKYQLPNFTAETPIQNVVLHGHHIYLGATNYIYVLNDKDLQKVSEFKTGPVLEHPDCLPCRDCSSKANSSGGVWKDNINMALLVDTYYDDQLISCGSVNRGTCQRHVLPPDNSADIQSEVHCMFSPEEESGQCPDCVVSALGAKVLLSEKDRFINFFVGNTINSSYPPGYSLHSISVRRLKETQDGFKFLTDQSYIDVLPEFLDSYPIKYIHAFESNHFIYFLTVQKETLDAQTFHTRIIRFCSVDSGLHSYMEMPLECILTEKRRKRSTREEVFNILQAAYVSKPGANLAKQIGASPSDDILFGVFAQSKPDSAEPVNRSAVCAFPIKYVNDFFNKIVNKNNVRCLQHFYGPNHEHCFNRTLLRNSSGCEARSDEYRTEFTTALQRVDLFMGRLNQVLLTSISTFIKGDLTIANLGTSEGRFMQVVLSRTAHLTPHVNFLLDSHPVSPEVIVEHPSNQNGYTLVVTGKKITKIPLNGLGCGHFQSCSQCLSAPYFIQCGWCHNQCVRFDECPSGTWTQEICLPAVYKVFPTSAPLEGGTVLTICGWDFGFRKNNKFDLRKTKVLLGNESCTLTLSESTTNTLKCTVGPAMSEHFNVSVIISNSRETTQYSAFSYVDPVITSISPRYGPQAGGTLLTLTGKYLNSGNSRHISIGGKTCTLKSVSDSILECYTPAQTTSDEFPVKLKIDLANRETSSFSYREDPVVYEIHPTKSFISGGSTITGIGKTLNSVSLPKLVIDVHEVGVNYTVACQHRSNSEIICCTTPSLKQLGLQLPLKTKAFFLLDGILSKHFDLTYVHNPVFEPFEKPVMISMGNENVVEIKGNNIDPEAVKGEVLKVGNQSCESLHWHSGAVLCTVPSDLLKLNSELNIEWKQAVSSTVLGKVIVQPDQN

B1: RAA22/B09-57 DuetMab (bispecific antibody, human IgG1, kappa, lambda)
heavy 1: QVQLVQSGAEVKKPGSSVKVSCKASGGTFSDNDFSWVRQAPGQGLEWMGAIVAVFRTETYAQKFQDRVKITADISTRTTYMELSSLRSEDTAVYYCARRLMSAISGPGAPLLMWGQGTLVTVSSASTKGPSVFPLAPSSKSTSGGTAALGCLVKDYFPEPVTVSWNSGALTSGVHTFPAVLQSSGLYSLSSVVTVPSSSLGTQTYICNVNHKPSNTKVDKRVEPKSCDKTHTCPPCPAPELLGGPSCVFLFPPKPKDTLMISRTPEVTCVVVDVSHEDPEVKFNWYVDGVEVHNAKTKPREEQYNSTYRVVSVLTVLHQDWLNGKEYKCKVSNKALPAPIEKTISKAKGQPREPQVCTLPPSREEMTKNQVSLSCAVKGFYPSDIAVEWESNGQPENNYKTTPPVLDSDGSFFLVSKLTVDKSRWQQGNVFSCSVMHEALHNHYTQKSLSLSPGK
heavy 2: QVQLVQSGAEVKKPGASVKVSCKASGYTFTDYYIHWVRQATGQGLEWMGWMNPNSGNTGYAQKFQGRVTMTRDTSISTAYMELSSLRSEDTAVYYCARGQGYTHSWGQGTMVTVSSASTKGPSVCPLAPSSKSTSGGTAALGCLVKDYFPEPVTVSWNSGALTSGVHTFPAVLQSSGLYSLSSVVTVPSSSLGTQTYICNVNHKPSNTKVDKRVEPKSVDKTHTCPPCPAPELLGGPSCVFLFPPKPKDTLMISRTPEVTCVVVDVSHEDPEVKFNWYVDGVEVHNAKTKPREEQYNSTYRVVSVLTVLHQDWLNGKEYKCKVSNKALPAPIEKTISKAKGQPREPQVYTLPPCREEMTKNQVSLWCLVKGFYPSDIAVEWESNGQPENNYKTTPPVLDSDGSFFLYSKLTVDKSRWQQGNVFSCSVMHEALHNHYTQKSLSLSPG
light 1: QSALTQPRSVSGSPGQSVTISCTGTSSDVGGYNYVSWYQQHPGKAPKLMIYDVSKRPSGVPDRFSGSKSGNTASLTISGLQAEDEADYYCSSYTSSDTLEIFGGGTKLTVLGQPKAAPSVTLFPPSSEELQANKATLVCLISDFYPGAVTVAWKADSSPVKAGVETTTPSKQSNNKYAASSYLSLTPEQWKSHRSYSCQVTHEGSTVEKTVAPTECS
light 2: DIQMTQSPSTLSASVGDRVTITCRASEGIYHWLAWYQQKPGKAPKLLIYKASSLASGVPSRFSGSGSGTEFTLTISSLQPDDFATYYCQQYSNYPPTFGGGTKLEIKRTVAAPSVFIFPPCDEQLKSGTASVVCLLNNFYPREAKVQWKVDNALQSGNSQESVTEQDSKDSTYSLSSTLTLSKADYEKHKVYACEVTHQGLSSPVTKSFNRGEV
notes: also called monovalent bispecific EGFR/cMET DuetMAb RAA22/B09; RAA22/B09-Maia
Consider B1, for which the ELISA binding entry in the assay on Cynomolgus monkey EGFR is listed as “still weaker binding”; with Human EGFR, “still weaker binding”; with Mouse EGFR it was “nominal binding”. Further, the “binding at T=0” value in the assay with H1975 cells is given as 3.5×10^6 MFI. Moreover, the “cytoplasmic intensity values, fold higher than B09-IgG” value with H1975 cells is reported as 4.70 fold. Also, in the assay with H1975 cells, the “cytoplasmic intensity values, fold higher than RAA22-IgG” value amounted to 10.98 fold. This molecule also registered an internalization half-times in the assay with H1975 cells of 43.2 ± 15.5 min. The Kd in assay [1] came out at 2.2 nM; in assay [2] it was 197 nM; in assay [3] it was 575 nM. In addition, the off-rate constant (koff) was determined as 0.00212 s⁻¹ in assay [1], 0.00548 s⁻¹ in [2] and 0.0206 s⁻¹ in assay [3]. The kon in assay [1] amounted to 974000 M⁻¹ s⁻¹; in assay [2] it was 27800 M⁻¹ s⁻¹; in [3], 35400 M⁻¹ s⁻¹. In addition, the binding result in the assay with Mouse cMET (recombinant), with HER3 and with HER4 was “no binding (tested: 10 ug/ml)” in each case.

B2: QD6/B09-57 DuetMab (bispecific antibody, human IgG1, kappa, lambda)
heavy 1: QVQLVQSGAEVKKPGSSVKVSCKASGGTFSDNDFSWVRQAPGQGLEWMGAIVAVVRTETYAQKFQDRVKITADISTRTTYMELSSLRSEDTAVYYCARRLMSAISGPGAPLLMWGQGTLVTVSSASTKGPSVFPLAPSSKSTSGGTAALGCLVKDYFPEPVTVSWNSGALTSGVHTFPAVLQSSGLYSLSSVVTVPSSSLGTQTYICNVNHKPSNTKVDKRVEPKSCDKTHTCPPCPAPELLGGPSCVFLFPPKPKDTLMISRTPEVTCVVVDVSHEDPEVKFNWYVDGVEVHNAKTKPREEQYNSTYRVVSVLTVLHQDWLNGKEYKCKVSNKALPAPIEKTISKAKGQPREPQVCTLPPSREEMTKNQVSLSCAVKGFYPSDIAVEWESNGQPENNYKTTPPVLDSDGSFFLVSKLTVDKSRWQQGNVFSCSVMHEALHNHYTQKSLSLSPGK
heavy 2: QVQLVQSGAEVKKPGASVKVSCKASGYTFTDYYIHWVRQATGQGLEWMGWMNPNSGNTGYAQKFQGRVTMTRDTSISTAYMELSSLRSEDTAVYYCARGQGYTHSWGQGTMVTVSSASTKGPSVCPLAPSSKSTSGGTAALGCLVKDYFPEPVTVSWNSGALTSGVHTFPAVLQSSGLYSLSSVVTVPSSSLGTQTYICNVNHKPSNTKVDKRVEPKSVDKTHTCPPCPAPELLGGPSCVFLFPPKPKDTLMISRTPEVTCVVVDVSHEDPEVKFNWYVDGVEVHNAKTKPREEQYNSTYRVVSVLTVLHQDWLNGKEYKCKVSNKALPAPIEKTISKAKGQPREPQVYTLPPCREEMTKNQVSLWCLVKGFYPSDIAVEWESNGQPENNYKTTPPVLDSDGSFFLYSKLTVDKSRWQQGNVFSCSVMHEALHNHYTQKSLSLSPG
light 1: QSALTQPRSVSGSPGQSVTISCTGTSSDVGGYNYVSWYQQHPGKAPKLMIYDVSERPSGVPDRFSGSKSGNTASLTISGLQAEDEADYYCFSYTSSDTLEIFGGGTKLTVLGQPKAAPSVTLFPPSSEELQANKATLVCLISDFYPGAVTVAWKADSSPVKAGVETTTPSKQSNNKYAASSYLSLTPEQWKSHRSYSCQVTHEGSTVEKTVAPTECS
light 2: DIQMTQSPSTLSASVGDRVTITCRASEGIYHWLAWYQQKPGKAPKLLIYKASSLASGVPSRFSGSGSGTEFTLTISSLQPDDFATYYCQQYSNYPPTFGGGTKLEIKRTVAAPSVFIFPPCDEQLKSGTASVVCLLNNFYPREAKVQWKVDNALQSGNSQESVTEQDSKDSTYSLSSTLTLSKADYEKHKVYACEVTHQGLSSPVTKSFNRGEV
notes: also called monovalent bispecific EGFR/cMET DuetMAb QD6/B09
On to B2, for which the ELISA binding entry in the assay with Cynomolgus monkey EGFR, in the assay with Human EGFR and with Mouse EGFR was “gave robust signals” throughout. In addition, in the assay with H1975 cells, the internalization half-times was found to be 37.5 ± 10.6 min. Also, the dissociation constant Kd in assay [1] worked out at 2.2 nM; in assay [2], 2.8 nM; in assay [3] it was 6.2 nM. Besides, the koff in assay [1] amounted to 0.00206 s⁻¹; in assay [2], 0.000585 s⁻¹; in assay [3] it was 0.00078 s⁻¹. Also, the kon is 958000 M⁻¹ s⁻¹ in [1], 210000 M⁻¹ s⁻¹ in [2] and 126000 M⁻¹ s⁻¹ in assay [3]. The binding result with Mouse cMET (recombinant), with HER3 and with HER4 was “no binding (tested: 10 ug/ml)” throughout.

The record behind these values is patent US20260166140A1, “Combinations Involving Epidermal Growth Factor Receptor Tyrosine Kinase Inhibitors For the Treatment of Cancer” (AstraZeneca AB, priority 2022, published 2026).
